Holding throughout (conditions): both partners purified
In assay [1] the target is T1, NPNA2 peptide (Ac-[residues removed]-NH2) (Plasmodium falciparum (synthetic CSP …).
T1 construct: source: synthetic peptide, bought: Innopep Inc
The assay is described as follows: crystal structure; Fab at 10 mg/ml mixed with peptide at 1:5 molar ratio of Fab to peptide; sitting drop vapor diffusion.

For assay [2], the target named is T2, NPNA3 peptide (Plasmodium falciparum (synthetic CSP …)).
T2 construct: source: synthetic peptide, bought: Innopep Inc
The assay is described as above.

The target of assay [3] is T3, NPNA4 peptide (Ac-[residues removed]-NH2) (Plasmodium falciparum (synthetic CSP …).
T3 construct: source: synthetic peptide, bought: Innopep Inc
The assay is described as follows: ITC; peptide in the syringe, Fab (~10 uM) in the cell; DPBS; 25 C; single-site binding model; triplicate; apparent affinity. A general note: In ITC the heat of successive injections is recorded.

In assay [4] the target is T4, NPNA6 peptide (Ac-[residues removed]-NH2) (Plasmodium falciparum (synthetic CSP …).
T4 construct: source: synthetic peptide, bought: Innopep Inc
The assay is described as above.

Assay [5] has as its target T1, NPNA2 peptide (Ac-[residues …). Described as above.

B1: Fab395 with elbow mutations in the heavy chain (crystallised form) (Fab, V domains shown)
VH: QEQLVESGGGVVQPGRSLRLSCAAASEFCFSCYGMHWVRQAPGKGLEWVAVIWHDGSNQHFADSVKGRFTISRDNSKNIMYLQMNSLRAEDTAVYYCASATRYDILTGAFDYWGQGTLVTVVS
VL: DIQMTQSPSTLSASVGDRVTITCRASQSISTWLAWYQQKPGKAPKLLIYKASSLESGVPSRFSGSGSGTEFTLTISSLQPDDFATYYCQQYSRYWTFGQGTKVEIK
notes: source: ExpiCHO cells, purified (HiTrap Protein G, SEC)
B1: the binding result in assay [1] is “binds”.

B2: Fab399 (Fab, V domains shown)
VH: EVQLVESGGGLVQPGRSLRLSCTTSGFTFGDYAMSWFRQAPGKGLEWVGFIRSKGFGGTAEYAAFVKGRFTISRDDSRSIAYLQMTSLKPEDTAVYYCSRVGVVIATAVYWGQGTLVTVSS
VL: DILMTQTPLSLSVTPGQPASISCKSSQSLLDNDGKTYLYWYLQKPGQSPQLLIYEVSNRFSGVPERFSGSGSGTDFTLKIRRVEAEDVGVYYCMQRIDLPWTFGQGTKVEIK
notes: also called mAb399; source: ExpiCHO cells, purified (HiTrap Protein G, SEC)
Consider B2, for which the binding result in assay [2] is recorded as “binds”. Moreover, the Kd in assay [3] is 5920 nM; in assay [4] it was 94 nM.

B3: Fab356 (Fab, V domains shown)
VH: VQLVESGGGVVQPGRSLRLSCAASGFTFRNFGMHWVRQTPGKGLEWVAVIWHDGSNKFYADSVEGRFTISRDNSKNMIYLQMNSLRVEDTAIYYCARDSLFYDHDNSGYYGYWGQGTLVTVSS
VL: QIVMTQSPATVSVSPGERATLSCRASRSVTSKLAWYQQKPGQAPRLLIYGASTRATGIPARFSGSGSGTEFTLTISSLQSEDFAVYFCQQYNNGFTFGPGTKVDFK
notes: also called mAb356; source: ExpiCHO cells, purified (HiTrap Protein G, SEC)
For B3, the figures for the Kd in assay [3], in assay [5] and in assay [4] were 82 nM, 8270 nM and 30 nM, respectively.

B4: Fab366 with elbow mutations in the heavy chain (crystallised form) (Fab, V domains shown)
VH: QVQLVQSGAEVKKPGASARVSCKASGYTLTDFYLHWVRQAPGQGLEWMGWLNPHSGGTNYAQKFLGRVSMTRDTSISTAYMELNKLISDDTAVYFCVRSDQEALRGAFDIWGQGTMVFVVS
VL: DIQMTQSPSSLSASVGDTVTITCRASQSINDYLNWYQQKPGKAPKLLIYATSSLHSGVPSRFSGSGFGTDFTLTISSLQPEDSATYLCQQSHSLWTFGQGTKVEVK
notes: as for B1
As for B4, the binding result in assay [2] is listed as “binds”.

The record behind these values is PMC7887213 (Nature Communications, 2021).
